Laboratory results published in patent US20140056903A1 (Regeneron, published 2014).

B1: H4H2352S (antibody, human IgG4, V domains shown)
VH: EVQLVQSGAEVKKPGASVKVSCKASGYTFTNYGITWVRQAPGQGLEWMGWISAYNGNTGYAQKFQGRVTMTTDTSTSTAYMELRSLRSDDTAVYYCAREDYDFWRAFDIWGQGTMVTVSS
VL: EIVLTQSPGTLSLSPGERATLSCRASQSVSSTYLAWLQQKPGQAPRLLIYGASSRATGIPDRFSGSGSGTDFTLTINRLEPEDFAVYYCQQYAYSPYTFGQGTKLEIK
notes: human IgG4 Fc (H4H); also called H4H2352S-1
B2: H4H2292S (antibody, human IgG4, V domains shown)
VH: EVQLVESGGGVVQPGRSLRLSCAASGFTFSSYGMHWVRQAPGKGLEWVSFIWYDGSNKYYADSVKGRFTISRDNSKNTLYLQMNSLTAEDTAVYYCARRGILTGTTAFDIWGQGTMVTVSS
VL: DIQMTQSPSSLSASVGDRVTITCRASQSISSYLNWYQQKPGKAPKLLIYAASSLQSGVPSRFSGSGSGTDFTLTIRSLIPEDFATYYCQQTYNTPFTFGPGTKVEIK
notes: human IgG4 Fc (H4H)
B3: H4H2350P (antibody, human IgG4, V domains shown)
VH: QVQLQESGPGLVKPSETLSLTCTVSGGSISTYYWSWFRQPPGKGLEWIGYIYYSGSTNHNPSLKSRVTISVDTSKNQFSLKLRSVTAADTAVYYCARVGPVGWGSWGNFDYWGQGTLVTVSS
VL: DIQLTQSPSFLSASVGDRVTITCWASQGISSYLAWSQQKPGKAPKLLIYAASTLQSGVPSRFSGSGSGTEFTLTISSLQPEDFATYYCQQLNSYPWTFGQGTKVEIK
notes: human IgG4 Fc (H4H)

Experiments:
[1] = target: T1, human GFRα3 expressed with a C-terminal myc-myc-hexahistidine tag (human, UniProt O60609 32-374, biotinylated (sites not given) in ELISA format 2 and in the Octet cross-competition; not in SPR); assay: SPR, Ab captured, 37C
T1 construct: also called hGFRα3-mmh; hGFRα3-mmH
T1 sequence (O60609 other isoform, or with tags, fused parts or gaps limits assumed): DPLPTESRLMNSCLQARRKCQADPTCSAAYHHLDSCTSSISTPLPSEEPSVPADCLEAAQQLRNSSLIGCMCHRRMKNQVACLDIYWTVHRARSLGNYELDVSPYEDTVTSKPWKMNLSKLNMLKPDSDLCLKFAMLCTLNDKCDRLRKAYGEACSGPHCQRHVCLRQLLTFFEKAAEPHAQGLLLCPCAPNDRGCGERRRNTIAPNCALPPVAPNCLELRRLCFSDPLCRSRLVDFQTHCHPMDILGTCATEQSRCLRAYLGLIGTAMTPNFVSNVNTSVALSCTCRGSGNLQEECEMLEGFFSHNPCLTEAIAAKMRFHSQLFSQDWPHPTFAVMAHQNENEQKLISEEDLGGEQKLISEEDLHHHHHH
In short: (§1)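 Antibodies captured on anti-mouse or anti-human IgG CM5 surfaces, in HBS-EP or PBS-P20 at pH 7.4. mmh-tagged GFRα3 injected at 200–7.4 nM and Fc-tagged at 100–3.7 nM, with association up to 4 min and dissociation up to 20 min. Data fitted 1:1; KD=kd/ka, t1/2=ln2/(60*kd).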

[2] = target: T2, human GFRα3 expressed with a C-terminal mFc tag (human); assay: SPR, Ab captured, 37C
T2 construct: also called hGFRα3-mFc
T2 chain: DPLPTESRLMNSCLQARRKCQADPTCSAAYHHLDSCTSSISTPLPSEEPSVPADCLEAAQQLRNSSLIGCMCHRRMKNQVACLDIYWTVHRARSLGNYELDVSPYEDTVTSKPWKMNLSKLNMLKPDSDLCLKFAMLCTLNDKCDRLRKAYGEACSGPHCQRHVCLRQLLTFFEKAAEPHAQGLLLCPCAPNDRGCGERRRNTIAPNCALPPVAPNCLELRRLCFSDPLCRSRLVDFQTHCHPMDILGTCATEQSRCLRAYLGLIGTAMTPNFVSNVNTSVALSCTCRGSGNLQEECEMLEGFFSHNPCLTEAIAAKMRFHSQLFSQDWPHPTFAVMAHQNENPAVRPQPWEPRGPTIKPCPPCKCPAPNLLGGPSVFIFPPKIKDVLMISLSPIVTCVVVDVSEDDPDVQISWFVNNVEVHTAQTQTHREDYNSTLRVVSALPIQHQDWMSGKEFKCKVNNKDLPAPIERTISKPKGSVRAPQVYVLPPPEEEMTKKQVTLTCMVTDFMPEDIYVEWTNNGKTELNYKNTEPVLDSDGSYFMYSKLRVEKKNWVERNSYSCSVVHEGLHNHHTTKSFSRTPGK
In short: as §1

[3] = target: T1, human GFRα3 expressed with a C-terminal …; assay: Octet cross-competition; biotin-hGFRα3-mmH pre-saturated with first antibody H4H2292S
Experimental: (§2) A cross-competition assay was conducted to assess the ability of select antibodies to compete with one another for binding to human GFRα3 using an Octet RED384 biosensor (Fortebio Inc.). The entire experiment was performed at 25° C. with the flow rate of 1000 rpm in Octet HBST buffer (0.01 M HEPES pH7.4, 0.15M NaCl, 3 mM EDTA, 0.05% v/v Surfactant P20, 0.1 mg/mL BSA). To assess whether 2 antibodies were able to compete with one another for binding to their respective epitopes on biotinylated recombinant human GFRα3 expressed with a C-terminal myc-myc-hexahistidine tag (biotin-hGFRα3-mmH; SEQ ID:370), around ˜1.2 nm of biotin-hGFRα3-mmH was first captured onto streptavidin-coated Octet sensor tips (Fortebio Inc, #18-5019) by submerging the tips for 1 minute into a 10 μg/mL solution of biotin-hGFRα3-mmH. The antigen coated sensor tips were then placed into wells containing 25 μg/mL solution of a first anti-GFRα3 monoclonal antibody for 4 minutes to saturate the biotin-hGFRα3-mmH surface. The sensor tips were then subsequently dipped into wells containing 25 μ/mL solution of a second anti-GFRα3 monoclonal antibody. The sensor tips were washed in Octet HBST buffer in between every step of the experiment. The real-time binding response was monitored during the course of the experiment and the binding response at the end of every step was recorded as shown in FIG. 9. The response of mAb-2 binding to biotin-hGFRα3-mmH pre-complexed with the first antibody was compared and competitive/non-competitive behavior of different anti-GFRα3 monoclonal antibodies was determined.

[4] = target: T1, human GFRα3 expressed with a C-terminal …; assay: Octet cross-competition; biotin-hGFRα3-mmH pre-saturated with first antibody H4H2296S
Experimental: as §2

[5] = target: T1, human GFRα3 expressed with a C-terminal …; assay: Octet cross-competition; biotin-hGFRα3-mmH pre-saturated with first antibody H4H2352S
Experimental: as §2

[6] = target: T1, human GFRα3 expressed with a C-terminal …; assay: Octet cross-competition; biotin-hGFRα3-mmH pre-saturated with first antibody H4H2357S
Experimental: as §2

Binder	Kd [1] [nM]	koff [1] [s⁻¹]	kon [1] [M⁻¹ s⁻¹]	t1/2 [1] [h]	Kd [2] [nM]	koff [2] [s⁻¹]	kon [2] [M⁻¹ s⁻¹]	t1/2 [2] [h]	binding response of second antibody (nm) [3] [nm]	binding response of second antibody (nm) [4] [nm]	binding response of second antibody (nm) [5] [nm]	binding response of second antibody (nm) [6] [nm]
B1	0.118	0.000139	1.18e+06	1.38	0.0132	3e-05	2.28e+06	6.42	0.34	2.01	0.1	2
B2	1.94	0.000249	128000	0.767	0.0432	2.57e-05	596000	7.48	0.11	1.87	0.15	1.92
B3	9.61	0.00128	134000	0.15	0.0492	0.000126	2.56e+06	1.53	1.53	1.27	1.43	1.35
